Patent publication US20240287161A1 (NATIONAL UNIVERSITY CORPORATION TOTTORI UNIVERSITY, published 2024)

Legend:
[1] = biological target: T1, MERS-CoV trimeric S protein (amino acids 13-1296) with T4 foldon, histidine tag and strep-tag (MERS-CoV, UniProt K9N5Q8 16-1293); test: ELISA on coated S-trimeric antigen, anti-human IgG-HRP [Human IgG1, NT-108]
[2] = biological target: T1, MERS-CoV trimeric S protein (amino …); test: ELISA on coated S-trimeric antigen, anti-human IgG-HRP [Human IgG1, NT-193]
[3] = biological target: T1, MERS-CoV trimeric S protein (amino …); test: ELISA on coated S-trimeric antigen, anti-human IgG-HRP [Human IgG3, NT-193]

B1: NT-108 (recombinant human IgG1/kappa antibody) (antibody, V domains shown)
VH: EVQLQQSGPGLVKPSQTLSLTCSISGDSVSSNSAAWNWIRQSPSRGLEWLGRTYYRSKWYNDYAGTVKSRIAINPDTSKNQFSLHLNSVTPEDTAVYFCARVISVAGYAFDIWGQGTMVTVSS
VL: EIVLTQSPGTLSLSPGERATLSCRASQSVSSTFLAWYQQKPGQAPRLLIYGASYMATGIPDRFSGSGSGTDFTLTISRLEPEDFAVYYCQQYGSSLTFGGGTKLEIK
[1]
  binding result: no binding (tested: 1000 ng/ml)

B2: NT-193 (recombinant human IgG1/kappa antibody) (antibody, V domains shown)
VH: EVQLQQWGAGLLKPSETLSLTCAVYGGSFSGYYWSWIRQPPGKGLEWIGEINHSGSTNYNPSLKSRVTISVDTSKNQFSLKLSSVTAADTAVYYCARGWDLDYYYGMDVWGQGTTVTVSS
VL: DIRMTQSPSAMSASVGDRVTVTCRASQGIGNYLAWFQLKPGKVPKRLIYAASSLQSGVPARFSGGGSGTEFTLTISSLQPEDFATYYCLQHGFLPWTFGQGTKLEIK
[2]
  binding result: no binding (tested: 1000 ng/ml)

B3: NT-193, human IgG3 subclass (antibody, V domains shown)
VH: EVQLQQWGAGLLKPSETLSLTCAVYGGSFSGYYWSWIRQPPGKGLEWIGEINHSGSTNYNPSLKSRVTISVDTSKNQFSLKLSSVTAADTAVYYCARGWDLDYYYGMDVWGQGTTVTVSS
VL: DIRMTQSPSAMSASVGDRVTVTCRASQGIGNYLAWFQLKPGKVPKRLIYAASSLQSGVPARFSGGGSGTEFTLTISSLQPEDFATYYCLQHGFLPWTFGQGTKLEIK
[3]
  binding result: no binding (tested: 1000 ng/ml)
